Measured values: the supplement of paper PMC10567573

B1: STK38L (parent)
chain: NWKETLVFPPEVPISEKAKDLILR
B2: GFOD1 (parent)
chain: EEAEELAKEMSVPFYTSRIDEVLL

Variants of: B1
Assay: protein stability index of a GFP-peptide fusion (GPS, HEK-293T) (PSI 1-6); higher = more stable
Conditions: c terminus: a fixed tail appended
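Further: lentivirally expressed fusions sorted by FACS into six bins by GFP to DsRed ratio, PSI derived from sequencing read proportions per bin multiplied by bin number.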

Compared with NWKETLVFPTEVPISEKAKDLILR [P10T], NWKETLVFPDEVPISEKAKDLILR [P10D] is higher in protein stability index: 3.35 for the first, 3.43 for the second.

Compared with NWKETLVFPHEVPISEKAKDLILR [P10H], NWKETLVFPFEVPISEKAKDLILR [P10F] is lower in protein stability index: 3.03 for the first, 1.8 for the second.

Going from NWKETLVFPSEVPISEKAKDLILR [P10S] to NWKETLVFPQEVPISEKAKDLILR [P10Q], the protein stability index rises from 2.6 to 3.3.

Compared with NWKETLVFPWEVPISEKAKDLILR [P10W], NWKETLVFPIEVPISEKAKDLILR [P10I] is higher in protein stability index: 1.78 for the first, 2.14 for the second.

Compared with NWKETLVFPAEVPISEKAKDLILR [P10A], NWKETLVFPCEVPISEKAKDLILR [P10C] is higher in protein stability index: 2.65 for the first, 2.81 for the second.

Compared with NWKETLVFPMEVPISEKAKDLILR [P10M], NWKETLVFPPDVPISEKAKDLILR [E11D] is higher in protein stability index: 2.8 for the first, 3.15 for the second.

First: NWKETLVFPPCVPISEKAKDLILR [E11C]
Second: NWKETLVFPPFVPISEKAKDLILR [E11F]
The protein stability index of the first is higher: 2.89 for the first, 1.92 for the second.

Going from NWKETLVFPPAVPISEKAKDLILR [E11A] to NWQETLVFPPEVPISEKAKDLILR [K3Q], the protein stability index rises from 2.87 to 3.77.

First: NWHETLVFPPEVPISEKAKDLILR [K3H]
Second: NWRETLVFPPEVPISEKAKDLILR [K3R]
The protein stability index of the first is higher: 3.68 for the first, 3.12 for the second.

First: NWMETLVFPPEVPISEKAKDLILR [K3M]
Second: NWDETLVFPPEVPISEKAKDLILR [K3D]
The protein stability index of the first is lower: 2.42 for the first, 3.69 for the second.

Compared with NWIETLVFPPEVPISEKAKDLILR [K3I], NWFETLVFPPEVPISEKAKDLILR [K3F] is lower in protein stability index: 2.42 for the first, 1.64 for the second.

First: NWNETLVFPPEVPISEKAKDLILR [K3N]
Second: NWTETLVFPPEVPISEKAKDLILR [K3T]
The protein stability index of the first is higher: 3.46 for the first, 3.23 for the second.

First: NWYETLVFPPEVPISEKAKDLILR [K3Y]
Second: NWLETLVFPPEVPISEKAKDLILR [K3L]
The protein stability index of the first is higher: 2.18 for the first, 2.02 for the second.

Compared with NWCETLVFPPEVPISEKAKDLILR [K3C], NWVETLVFPPEVPISEKAKDLILR [K3V] is lower in protein stability index: 2.59 for the first, 2.53 for the second.

NWSETLVFPPEVPISEKAKDLILR [K3S] and NWGETLVFPPEVPISEKAKDLILR [K3G] are the same in protein stability index: 3.17 for the first, 3.17 for the second.

First: NWEETLVFPPEVPISEKAKDLILR [K3E]
Second: NWPETLVFPPEVPISEKAKDLILR [K3P]
The protein stability index of the first is lower: 3.41 for the first, 3.71 for the second.

Compared with NWWETLVFPPEVPISEKAKDLILR [K3W], NWAETLVFPPEVPISEKAKDLILR [K3A] is higher in protein stability index: 2.07 for the first, 3.37 for the second.

First: NRKETLVFPPEVPISEKAKDLILR [W2R]
Second: NEKETLVFPPEVPISEKAKDLILR [W2E]
The protein stability index of the first is lower: 3.39 for the first, 4.15 for the second.

Compared with NTKETLVFPPEVPISEKAKDLILR [W2T], NFKETLVFPPEVPISEKAKDLILR [W2F] is lower in protein stability index: 4.64 for the first, 3.37 for the second.

Compared with NDKETLVFPPEVPISEKAKDLILR [W2D], NSKETLVFPPEVPISEKAKDLILR [W2S] is lower in protein stability index: 3.68 for the first, 3.01 for the second.

Compared with NNKETLVFPPEVPISEKAKDLILR [W2N], NQKETLVFPPEVPISEKAKDLILR [W2Q] is higher in protein stability index: 4.14 for the first, 4.21 for the second.

First: NAKETLVFPPEVPISEKAKDLILR [W2A]
Second: NVKETLVFPPEVPISEKAKDLILR [W2V]
The protein stability index of the first is higher: 4.45 for the first, 3.59 for the second.

First: NMKETLVFPPEVPISEKAKDLILR [W2M]
Second: NHKETLVFPPEVPISEKAKDLILR [W2H]
The protein stability index of the first is higher: 3.54 for the first, 3.46 for the second.

First: NPKETLVFPPEVPISEKAKDLILR [W2P]
Second: NLKETLVFPPEVPISEKAKDLILR [W2L]
The protein stability index of the first is higher: 4.09 for the first, 3.96 for the second.

First: NYKETLVFPPEVPISEKAKDLILR [W2Y]
Second: NIKETLVFPPEVPISEKAKDLILR [W2I]
The protein stability index of the first is lower: 3.25 for the first, 3.32 for the second.

Compared with NCKETLVFPPEVPISEKAKDLILR [W2C], VWKETLVFPPEVPISEKAKDLILR [N1V] is lower in protein stability index: 3.67 for the first, 2.41 for the second.

First: HWKETLVFPPEVPISEKAKDLILR [N1H]
Second: YWKETLVFPPEVPISEKAKDLILR [N1Y]
The protein stability index of the first is higher: 3.04 for the first, 2.44 for the second.

Compared with RWKETLVFPPEVPISEKAKDLILR [N1R], MWKETLVFPPEVPISEKAKDLILR [N1M] is lower in protein stability index: 2.74 for the first, 1.98 for the second.

Going from SWKETLVFPPEVPISEKAKDLILR [N1S] to AWKETLVFPPEVPISEKAKDLILR [N1A], the protein stability index falls from 4.02 to 2.16.

Compared with QWKETLVFPPEVPISEKAKDLILR [N1Q], IWKETLVFPPEVPISEKAKDLILR [N1I] is lower in protein stability index: 3.09 for the first, 2.18 for the second.

Going from DWKETLVFPPEVPISEKAKDLILR [N1D] to CWKETLVFPPEVPISEKAKDLILR [N1C], the protein stability index falls from 3.57 to 3.1.

Compared with WWKETLVFPPEVPISEKAKDLILR [N1W], KWKETLVFPPEVPISEKAKDLILR [N1K] is higher in protein stability index: 1.78 for the first, 2.9 for the second.

Going from PWKETLVFPPEVPISEKAKDLILR [N1P] to NWKETYVFPPEVPISEKAKDLILR [L6Y], the protein stability index rises from 3 to 3.39.

Compared with NWKETGVFPPEVPISEKAKDLILR [L6G], NWKETNVFPPEVPISEKAKDLILR [L6N] is higher in protein stability index: 1.5 for the first, 3.55 for the second.

Going from NWKETRVFPPEVPISEKAKDLILR [L6R] to NWKETFVFPPEVPISEKAKDLILR [L6F], the protein stability index rises from 2.83 to 3.31.

Compared with NWKETHVFPPEVPISEKAKDLILR [L6H], NWKETKVFPPEVPISEKAKDLILR [L6K] is higher in protein stability index: 2.61 for the first, 3.53 for the second.

Compared with NWKETAVFPPEVPISEKAKDLILR [L6A], NWKETEVFPPEVPISEKAKDLILR [L6E] is lower in protein stability index: 4.04 for the first, 3.66 for the second.

Going from NWKETIVFPPEVPISEKAKDLILR [L6I] to NWKETQVFPPEVPISEKAKDLILR [L6Q], the protein stability index rises from 2.86 to 3.87.

Compared with NWKETMVFPPEVPISEKAKDLILR [L6M], NWKETWVFPPEVPISEKAKDLILR [L6W] is lower in protein stability index: 3.31 for the first, 2.74 for the second.

Compared with NWKETSVFPPEVPISEKAKDLILR [L6S], NWKETVVFPPEVPISEKAKDLILR [L6V] is lower in protein stability index: 3.62 for the first, 3.15 for the second.

Compared with NWKETTVFPPEVPISEKAKDLILR [L6T], NWKETPVFPPEVPISEKAKDLILR [L6P] is higher in protein stability index: 3.46 for the first, 4.16 for the second.

Compared with NWKETDVFPPEVPISEKAKDLILR [L6D], NWKETCVFPPEVPISEKAKDLILR [L6C] is lower in protein stability index: 3.93 for the first, 3 for the second.

Variants of: B2
Assay: as above
Conditions: c terminus: a fixed tail appended

Compared with EEAEELAKEMSVPFYTSRIFEVLL [D20F], EEAEELAKEMSVPFYTSRIEEVLL [D20E] is higher in protein stability index: 2 for the first, 3.91 for the second.

First: HEAEELAKEMSVPFYTSRIDEVLL [E1H]
Second: EEAENLAKEMSVPFYTSRIDEVLL [E5N]
The protein stability index of the first is higher: 4.47 for the first, 3.23 for the second.

First: EEAEELAKEMSVPFYTSPIDEVLL [R18P]
Second: EEAEELAKEMSVPFYTSHIDEVLL [R18H]
The protein stability index of the first is lower: 4.15 for the first, 4.57 for the second.

Compared with EEAEELAKEMSVQFYTSRIDEVLL [P13Q], EEAEELAKEMSVPFYTSRIDAVLL [E21A] is lower in protein stability index: 3.47 for the first, 2.66 for the second.

Going from EEAEELAKEMSVPFYTRRIDEVLL [S17R] to EEAEELAKKMSVPFYTSRIDEVLL [E9K], the protein stability index falls from 3.9 to 2.66.
